Our source for the Kd, koff and kon values is US20200048328A1 (Bristol-Myers Squibb, published 2020).

The target of experiment [1] is T1, rhesus serum albumin (rhesus, UniProt Q28522 17-600).
T1 construct: also called RhSA; Rh-SA
Briefly: SPR, albumin immobilized, acetate pH 5.5.

The target in experiment [2] is T2, mouse serum albumin (mouse, UniProt P07724 25-608).
T2 construct: also called MSA; MuSA
The experiment can be described thus: SPR, albumin immobilized, acetate pH 5.5.

In experiment [3] the target is T3, human serum albumin (human, UniProt P02768 25-609).
T3 construct: immobilized on chips or coated on plates elsewhere; also called HSA; HuSA
The experiment can be described thus: SPR, albumin immobilized, acetate pH 5.5.

The target of experiment [4] is T1, rhesus serum albumin. The experiment can be described thus: SPR, albumin immobilized.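 Also: biacore CM5 surface plasmon resonance with serum albumin coupled to the chip, 3 min association then 6-10 min dissociation, rates from a 1:1 model fit.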
Method: (§1) To determine the kinetics of binding to human, rhesus, and mouse serum albumin, as well as whether binding was retained at both physiological and endosomal pHs, the respective serum albumins were immobilized on a Biacore CMS chip to a surface density of ˜1200 RU using standard NHS/EDC coupling. […] Kinetic measurements were carried out using a 3 min association and 6-10 min dissociation phase. Kinetic traces of reference-subtracted sensorgrams were fit to a 1:1 binding model using the Biaevaluation software.
(§2) In addition, binding to albumin was carried out under various pH conditions ranging from pH 5.5 to pH 7.4.
For experiment [5], the target named is T2, mouse serum albumin. Briefly: SPR, albumin immobilized.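 Also: biacore CM5 surface plasmon resonance with serum albumin coupled to the chip, 3 min association then 6-10 min dissociation, rates from a 1:1 model fit.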
Method: as §1, §2
A further experiment addresses T4, cynomolgus serum albumin (cynomolgus, UniProt A2V9Z4 25-608).
T4 construct: also called cynoSA; CySA
The experiment can be described thus: SPR, albumin immobilized.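 Also: biacore CM5 surface plasmon resonance with serum albumin coupled to the chip, 3 min association then 6-10 min dissociation, rates from a 1:1 model fit.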

Another experiment has as its target T5, rat serum albumin (rat, UniProt P02770 25-608).
T5 construct: also called Rat SA; RSA
Briefly: SPR, albumin immobilized.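 Also: biacore CM5 surface plasmon resonance with serum albumin coupled to the chip, 3 min association then 6-10 min dissociation, rates from a 1:1 model fit.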

Experiment [6] addresses T3, human serum albumin. Briefly: SPR, albumin immobilized.
Method: as §1, §2

T5 sequence (P02770 25-608 limits assumed): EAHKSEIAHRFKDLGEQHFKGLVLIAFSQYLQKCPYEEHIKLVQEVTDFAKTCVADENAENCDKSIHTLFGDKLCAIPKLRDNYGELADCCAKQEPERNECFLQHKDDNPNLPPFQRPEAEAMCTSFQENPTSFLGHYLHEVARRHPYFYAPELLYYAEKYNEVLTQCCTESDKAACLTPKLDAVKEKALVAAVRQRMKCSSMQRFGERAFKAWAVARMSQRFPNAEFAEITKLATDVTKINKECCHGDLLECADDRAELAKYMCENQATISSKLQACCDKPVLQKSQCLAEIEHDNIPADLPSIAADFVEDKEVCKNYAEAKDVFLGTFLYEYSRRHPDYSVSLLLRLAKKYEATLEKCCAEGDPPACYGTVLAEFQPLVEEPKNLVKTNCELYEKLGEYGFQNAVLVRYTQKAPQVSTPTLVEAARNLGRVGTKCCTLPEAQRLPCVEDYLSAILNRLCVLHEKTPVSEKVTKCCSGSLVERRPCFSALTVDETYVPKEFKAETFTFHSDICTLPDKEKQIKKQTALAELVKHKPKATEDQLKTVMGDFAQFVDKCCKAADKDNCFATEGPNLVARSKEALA
T1 sequence (Q28522 17-600 limits assumed): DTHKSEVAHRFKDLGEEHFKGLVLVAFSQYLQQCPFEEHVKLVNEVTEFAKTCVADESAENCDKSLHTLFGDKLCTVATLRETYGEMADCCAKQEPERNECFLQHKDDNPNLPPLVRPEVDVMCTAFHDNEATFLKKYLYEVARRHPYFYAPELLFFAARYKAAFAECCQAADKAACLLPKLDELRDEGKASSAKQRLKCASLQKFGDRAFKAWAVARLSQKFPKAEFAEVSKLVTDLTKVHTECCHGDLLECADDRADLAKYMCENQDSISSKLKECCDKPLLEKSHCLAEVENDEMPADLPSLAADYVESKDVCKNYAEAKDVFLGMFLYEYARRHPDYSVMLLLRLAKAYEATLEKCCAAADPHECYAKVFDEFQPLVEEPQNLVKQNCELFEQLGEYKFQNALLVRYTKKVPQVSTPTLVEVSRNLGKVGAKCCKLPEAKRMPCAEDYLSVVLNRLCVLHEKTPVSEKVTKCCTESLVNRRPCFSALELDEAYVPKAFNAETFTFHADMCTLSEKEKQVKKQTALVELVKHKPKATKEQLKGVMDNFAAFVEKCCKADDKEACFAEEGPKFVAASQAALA
T4 sequence (A2V9Z4 25-608 limits assumed): as the sequence (Q28522 17-600 limits assumed) above
T2 sequence (P07724 25-608 limits assumed): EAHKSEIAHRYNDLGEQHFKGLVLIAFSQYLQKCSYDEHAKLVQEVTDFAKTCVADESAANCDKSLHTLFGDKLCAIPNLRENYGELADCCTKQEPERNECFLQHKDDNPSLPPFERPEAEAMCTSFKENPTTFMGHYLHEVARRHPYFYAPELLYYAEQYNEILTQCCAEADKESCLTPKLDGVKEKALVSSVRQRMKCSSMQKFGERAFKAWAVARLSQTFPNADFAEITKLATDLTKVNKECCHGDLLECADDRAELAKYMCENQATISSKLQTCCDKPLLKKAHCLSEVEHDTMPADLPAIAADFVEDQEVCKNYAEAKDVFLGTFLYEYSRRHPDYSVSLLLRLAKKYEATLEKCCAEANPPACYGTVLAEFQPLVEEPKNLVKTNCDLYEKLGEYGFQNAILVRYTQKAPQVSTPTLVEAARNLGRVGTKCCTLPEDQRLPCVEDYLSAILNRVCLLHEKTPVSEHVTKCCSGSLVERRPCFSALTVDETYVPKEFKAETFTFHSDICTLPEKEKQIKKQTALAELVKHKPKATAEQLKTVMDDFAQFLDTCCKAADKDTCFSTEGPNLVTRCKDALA
Method for cynomolgus serum albumin: as §1, §2
Method for rat serum albumin: as §1, §2

B1: PKE2 Adnectin 2629_E06 (designed binder)
chain: MGVSDVPRDLEVVAATPTSLLISWDAPAVTVRYYRITYGREVQKYSDLGPLYIYQEFTVPGSKSTATISGLKPGVDYTITVYAVTGSGESPASSKPISINYRTEIDKPSQHHHHHH
notes: 10Fn3 domain with modified CD loop; the entry includes the His6 tail; also called ADX_2629_E06
In the case of B1, the Kd with rhesus serum albumin [1] worked out at 11.2 nM; with mouse serum albumin [2], 14.6 nM; with human serum albumin [3], 4.1 nM; in the experiment with rhesus serum albumin [4], 3.4 nM; with mouse serum albumin [5], 2.4 nM; with cynomolgus serum albumin, 3.2 nM. Further, the Kd with rat serum albumin was found to be 12.8 nM; with human serum albumin [6], 3.2 nM. In addition, the koff amounted to 0.000503 s⁻¹ with rhesus serum albumin [1]; 0.00113 s⁻¹ in the experiment with mouse serum albumin [2]; 0.000287 s⁻¹ with human serum albumin [3]; 0.00024 s⁻¹ in the experiment with rhesus serum albumin [4]; 0.000531 s⁻¹ in the experiment with mouse serum albumin [5]; 0.000229 s⁻¹ with cynomolgus serum albumin. Further, the dissociation rate constant (koff) in the experiment with rat serum albumin came to 0.00126 s⁻¹; with human serum albumin [6] it was 0.000185 s⁻¹. The on-rate (kon) with rhesus serum albumin [1] amounted to 44900 M⁻¹ s⁻¹; with mouse serum albumin [2], 77000 M⁻¹ s⁻¹; in the experiment with human serum albumin [3], 70700 M⁻¹ s⁻¹; with rhesus serum albumin [4], 73900 M⁻¹ s⁻¹; with mouse serum albumin [5], 219000 M⁻¹ s⁻¹; with cynomolgus serum albumin, 73700 M⁻¹ s⁻¹. Besides, the association rate constant (kon) with rat serum albumin was 99700 M⁻¹ s⁻¹; in the experiment with human serum albumin [6], 61000 M⁻¹ s⁻¹.
